Assay results from US20240034776A1 (FUDAN UNIVERSITY, published 2024).

T1: NRP2 extracellular domain protein with hFc (Sino Biological) (UniProt O60462 21-864)
T1 chain: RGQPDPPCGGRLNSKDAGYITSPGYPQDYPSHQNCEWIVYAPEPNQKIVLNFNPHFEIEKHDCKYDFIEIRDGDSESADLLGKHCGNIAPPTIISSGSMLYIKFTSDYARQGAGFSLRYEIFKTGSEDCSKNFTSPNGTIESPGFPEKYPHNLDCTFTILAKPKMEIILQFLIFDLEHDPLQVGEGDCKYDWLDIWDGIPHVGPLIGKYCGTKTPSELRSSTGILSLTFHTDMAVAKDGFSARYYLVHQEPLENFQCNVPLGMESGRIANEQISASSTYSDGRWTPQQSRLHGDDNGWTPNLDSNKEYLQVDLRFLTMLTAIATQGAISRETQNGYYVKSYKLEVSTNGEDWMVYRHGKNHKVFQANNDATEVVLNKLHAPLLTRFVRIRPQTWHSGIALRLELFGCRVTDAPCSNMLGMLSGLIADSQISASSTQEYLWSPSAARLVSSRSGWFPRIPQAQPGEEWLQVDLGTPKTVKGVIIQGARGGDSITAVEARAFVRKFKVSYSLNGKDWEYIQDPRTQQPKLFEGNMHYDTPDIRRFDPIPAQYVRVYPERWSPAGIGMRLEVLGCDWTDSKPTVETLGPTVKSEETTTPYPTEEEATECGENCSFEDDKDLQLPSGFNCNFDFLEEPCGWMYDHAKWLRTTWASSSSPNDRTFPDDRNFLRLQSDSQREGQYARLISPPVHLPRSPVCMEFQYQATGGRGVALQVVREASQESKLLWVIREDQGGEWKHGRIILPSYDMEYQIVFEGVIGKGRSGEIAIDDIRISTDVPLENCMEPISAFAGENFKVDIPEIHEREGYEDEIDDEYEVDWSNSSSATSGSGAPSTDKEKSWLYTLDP

T2: CD3ε (Met1-Asp126) protein with hFc tag (Sino Biological) (UniProt P07766 22-126)
T2 chain: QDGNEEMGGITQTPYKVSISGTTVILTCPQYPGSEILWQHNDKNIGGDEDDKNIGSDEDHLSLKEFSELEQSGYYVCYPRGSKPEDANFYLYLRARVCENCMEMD

T3: CD3E-human Fc protein (Sino Biological) (UniProt P07766 23-126)
T3 chain: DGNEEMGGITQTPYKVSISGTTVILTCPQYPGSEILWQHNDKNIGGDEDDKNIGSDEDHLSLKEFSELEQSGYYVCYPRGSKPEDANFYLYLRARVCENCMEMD

T4: P8 polypeptide with site 3 (L) mutated to alanine (human)
T4 construct: also called P8 L3A
T4 peptide: RLAEMEFEERKRAAE

T5: P8 polypeptide with site 7 (F) mutated to alanine (human)
T5 construct: also called P8 F7A
T5 peptide: RLLEMEAEERKRAAE

T6: P8 polypeptide with site 10 (R) mutated to alanine (human)
T6 construct: also called P8 R10A
T6 peptide: RLLEMEFEEAKRAAE

T7: P8 polypeptide with site 1 (R) mutated to alanine (human)
T7 construct: also called P8 R1A
T7 peptide: ALLEMEFEERKRAAE

T8: P8 polypeptide with site 2 (L) mutated to alanine (human)
T8 construct: also called P8 L2A
T8 peptide: RALEMEFEERKRAAE

T9: P8 polypeptide with site 4 (E) mutated to alanine (human)
T9 construct: also called P8 E4A
T9 peptide: RLLAMEFEERKRAAE

T10: P8 polypeptide with site 5 (M) mutated to alanine (human)
T10 construct: also called P8 M5A
T10 peptide: RLLEAEFEERKRAAE

T11: P8 polypeptide with site 6 (E) mutated to alanine (human)
T11 construct: also called P8 E6A
T11 peptide: RLLEMAFEERKRAAE

T12: P8 polypeptide with site 8 (E) mutated to alanine (human)
T12 construct: also called P8 E8A
T12 peptide: RLLEMEFAERKRAAE

T13: P8 polypeptide with site 9 (E) mutated to alanine (human)
T13 construct: also called P8 E9A
T13 peptide: RLLEMEFEARKRAAE

T14: P8 polypeptide with site 11 (K) mutated to alanine (human)
T14 construct: also called P8 K11A
T14 peptide: RLLEMEFEERARAAE

T15: P8 polypeptide with site 12 (R) mutated to alanine (human)
T15 construct: also called P8 R12A
T15 peptide: RLLEMEFEERKAAAE

T16: P8 polypeptide with site 15 (E) mutated to alanine (human)
T16 construct: also called P8 E15A
T16 peptide: RLLEMEFEERKRAAA

T17: ITPRIPL1 P8 polypeptide (human)
T17 construct: also called human ITPRIPL1 P8 polypeptide; polypeptide segment P8
T17 peptide: RLLEMEFEERKRAAE


Tests used:
[1] = target: T1, NRP2 extracellular domain protein with …; assay: ELISA
[2] = target: T2, CD3ε (Met1-Asp126) protein with hFc tag …; assay: ELISA
[3] = target: T3, CD3E-human Fc protein (Sino Biological); assay: BLI (Octet)
[4] = target: T18, HA-tagged CD3ε (expressed from pcDNA3.1 in transfected HCT116 cells) (human, UniProt P07766 23-207); assay: flow cytometry on HCT116-CD3ε cells, 1-4 µg/ml protein, anti-6x-His-FITC
T18 construct: whole, on cells; also called CD3ε-HA; CD3E-HA; not shown: HA tag

[5] = target: T4, P8 polypeptide with site 3 (L) mutated …; assay: ELISA, peptide coated at 1 µg/ml
[6] = target: T5, P8 polypeptide with site 7 (F) mutated …; assay: ELISA, peptide coated at 1 µg/ml
[7] = target: T6, P8 polypeptide with site 10 (R) mutated …; assay: ELISA, peptide coated at 1 µg/ml
[8] = target: T7, P8 polypeptide with site 1 (R) mutated …; assay: ELISA, peptide coated at 1 µg/ml, antibody at 1 µg/ml
[9] = target: T8, P8 polypeptide with site 2 (L) mutated …; assay: as above
[10] = target: T9, P8 polypeptide with site 4 (E) mutated …; assay: as above
[11] = target: T10, P8 polypeptide with site 5 (M) mutated …; assay: as above
[12] = target: T11, P8 polypeptide with site 6 (E) mutated …; assay: as above
[13] = target: T12, P8 polypeptide with site 8 (E) mutated …; assay: as above
[14] = target: T13, P8 polypeptide with site 9 (E) mutated …; assay: as above
[15] = target: T14, P8 polypeptide with site 11 (K) mutated …; assay: as above
[16] = target: T15, P8 polypeptide with site 12 (R) mutated …; assay: as above
[17] = target: T16, P8 polypeptide with site 15 (E) mutated …; assay: as above
ITPRIPL1 P8 polypeptide = target: T17, ITPRIPL1 P8 polypeptide; assay: ELISA, peptides coated at 1 µg/ml, antibody at 1 µg/ml

EC50 [1] [µg/mL]	EC50 [2] [µg/mL]	Kd [3] [nM]	binding result [4]	binding result [5]	binding result [6]	binding result [7]	binding result [8]	binding result [9]	binding result [10]	binding result [11]	binding result [12]	binding result [13]	binding result [14]	binding result [15]	binding result [16]	binding result [17]	binding result (ITPRIPL1 P8 polypeptide)	Binder
0.418	0.255	318	binds															ITPRIPL1-RBD recombinant protein (human ITPRIPL1 extracellular domain, 25-103 amino acids, C-terminal 6x-His and Myc tags, Cusabio, from yeast) (ligand, also called IT1-RBD protein; ITPRIPL1-RBD-6x-His recombinant protein; not shown: 6x-His and Myc tags at the C terminus) HPLMVSDRMDLDTLARSRQLEKRMSEEMRLLEMEFEERKRAAEQRQKAENFWTGDTSSDQLVLGKKDMGWPFQADGQEG
				no binding (tested: 1 µg/ml)	no binding (tested: 1 µg/ml)	no binding (tested: 1 µg/ml)	binds	binds	binds	binds	binds	binds	binds	binds	binds	binds	binds	monoclonal antibody 13B7A6H3 (antibody, mouse IgG1, kappa, V domains shown, Mouse hybridoma monoclonal; also called 13B7A6H3 monoclonal antibody) VH: QVQLQQSGPELVKPGASVRMSCKTSGYTFTDYVISWVKQRPGQGLEWIGEIFPRTGSTYYNENFKATATLTADKSSNTAYMQLSSLTSEDSAAYFCAFITSVDWAMEYWGQGTSVTVSS VL: DVVMTQTPLSLPVSLGDQASISCRSSESLVNSKGNTHLHWYLQKPGQSPKLLIYKVSNRFSGVPDRFSGSGSGTDFTLKISRVEAEDLGVYFCSQSTHAPYTFGGGTKLEIKR
